B1: PrgI (natural protein)
chain: MATPWSGYLDDVSAKFDTGVDNLQTQVTEALDKLAAKPSDPALLAAYQSKLSEYNLYRNAQSNTVKVFKDIDAAIIQNFR
notes: PrgI, needle filament protein of the S. enterica sv; Typhimurium injectisome; Helical filament; 72 subunits were modelled in the substrate-trapped map; also called PrgI_(1-72); needle filament protein
B2: SpaP (natural protein)
chain: MGNDISLIALLAFSTLLPFIIASGTCFVKFSIVFVMVRNALGLQQIPSNMTLNGVALLLSMFVMWPIMHDAYVYFEDEDVTFNDISSLSKHVDEGLDGYRDYLIKYSDRELVQFFENAQLKRQYGEETETVKRDKDEIEKPSIFALLPAYALSEIKSAFKIGFYLYLPFVVVDLVVSSVLLALGMMMMSPVTISTPIKLVLFVALDGWTLLSKGLILQYMDIAT
notes: SpaP, export apparatus protein of the S. enterica sv; Typhimurium injectisome; Five copies in the export apparatus (SpaP : Q : R 5 : 4 : 1); also called SpaP1-5; SpaP pentamer
B3: SpaQ (natural protein)
chain: MDDLVFAGNKALYLVLILSGWPTIVATIIGLLVGLFQTVTQLQEQTLPFGIKLLGVCLCLFLLSGWYGEVLLSYGRQVIFLALAKG
notes: also called SpaQ1-4
B4: PrgH (natural protein)
chain: METSKEKTITSPGPYIVRLLNSSLNGCEFPLLTGRTLFVVGQSDALTASGQLPDIPADSFFIPLDHGGVNFEIQVDTDATEIILHELKEGNSESRSVQLNTPIQVGELLILIRPESEPWVPEQPEKLETSAKKNEPRFKNGIVAALAGFFILGIGTVGTLWILNSPQRQAAELDSLLGQEKERFQVLPGRDKMLYVAAQNERDTLWARQVLARGDYDKNARVINENEENKRISIWLDTYYPQLAYYRIHFDEPRKPVFWLSRQRNTMSKKELEVLSQKLRALMPYADSVNITLMDDVTAAGQAEAGLKQQALPYSRRNHKGGVTFVIQGALDDVEILRARQFVDSYYRTWGGRYVQFAIELKDDWLKGRSFQYGAEGYIKMSPGHWYFPSPL
notes: PrgH, basal body ring protein of the S. enterica sv; Typhimurium injectisome; also called PrgH_(1-24); copies: 24
B5: PrgK (natural protein)
chain: CKDKDLLKGLDQEQANEVIAVLQMHNIEANKIDSGKLGYSITVAEPDFTAAVYWIKTYQLPPRPRVEIAQMFPADSLVSSPRAEKARLYSAIEQRLEQSLQTMEGVLSARVHISYDIDAGENGRPPKPVHLSALAVYERGSPLAHQISDIKRFLKNSFADVDYDNISVVLSERSDAQLQAPGTPVKRNSFATSWIVLIILLSVMSAGFGVWYYKNHYARNKKGITADDKAKSSNE
notes: PrgK, basal body ring protein of the S. enterica sv; Typhimurium injectisome; also called PrgK_(1-24); copies: 24
B6: SpaR (natural protein)
chain: MFYALYFEIHHLVASAALGFARVAPIFFFLPFLNSGVLSGAPRNAIIILVALGVWPHALNEAPPFLSVAMIPLVLQEAAVGVMLGCLLSWPFWVMHALGCIIDNQRGATLSSSIDPANGIDTSEMANFLNMFAAVVYLQNGGLVTMVDVLNKSYQLCDPMNECTPSLPPLLTFINQVAQNALVLASPVVLVLLLSEVFLGLLSRFAPQMNAFAISLTVKSGIAVLIMLLYFSPVLPDNVLRLSFQATGLSSWFYERGATHVLE
notes: SpaR, export apparatus protein of the S. enterica sv; Typhimurium injectisome; One copy in the export apparatus
B7: InvG (natural protein)
chain: SEKIPVTGSGFVAKDDSLRTFFDAMALQLKEPVIVSKMAARKKITGNFEFHDPNALLEKLSLQLGLIWYFDGQAIYIYDASEMRNAVVSLRNVSLNEFNNFLKRSGLYNKNYPLRGDNRKGTFYVSGPPVYVDMVVNAATMMDKQNDGIELGRQKIGVMRLNNTFVGDRTYNLRDQKMVIPGIATAIERLLQGEEQPLGNIVSSEPPAMPAFSANGEKGKAANYAGGMSLQEALKQNAAAGNIKIVAYPDTNSLLVKGTAEQVHFIEMLVKALDVAKRHVELSLWIVDLNKSDLERLGTSWSGSITIGDKLGVSLNQSSISTLDGSRFIAAVNALEEKKQATVVSRPVLLTQENVPAIFDNNRTFYTKLIGERNVALEHVTYGTMIRVLPRFSADGQIEMSLDIEDGNDKTPQSDTTTSVDALPEVGRTLISTIARVPHGKSLLVGGYTRDANTDTVQSIPFLGKLPLIGSLFRYSSKNKSNVVRVFMIEPKEIVDPLTPDASESVNNILKQSGAWSGDDKLQKWVRVYLDRGQEAIK
notes: InvG, basal body ring protein (outer rings) of the S. enterica sv; Typhimurium injectisome; modelled as G34-I173 (lower OR) and E174-G557 (upper OR); Printed as InvG_(1-15/16); the upper outer ring was built in a C15-symmetrized map; also called InvG_(1-15/16); outer rings

Columns and labels:
Test in all cases: cryo-EM structure
[1] = molecular target: B2; details: both partners purified
[2] = molecular target: T1, PrgJ (S. enterica sv. Typhimurium (endogenous …, UniProt P41785 1-101)); details: both partners purified
T1 construct: PrgJ, inner rod protein of the S. enterica sv; Typhimurium injectisome; Six protomers form the inner rod; also called PrgJ1-6; inner rod protein

[3] = molecular target: B7; details: both partners purified
[4] = molecular target: the molecule itself
[5] = molecular target: B6; details: both partners purified

T1 sequence (P41785 whole entry): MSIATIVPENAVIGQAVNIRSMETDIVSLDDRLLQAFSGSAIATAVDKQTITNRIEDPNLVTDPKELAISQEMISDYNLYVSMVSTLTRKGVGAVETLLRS

Row | Binder | binding result [2] | stoichiometry N [4] | further results
1 | B1 | binds |  | binding result [1]: binds; binding result [3]: binds; binding result [4]: binds
2 | B2 | binds | 5 | binding result [5]: binds
3 | B3 |  | 4 | binding result [1]: binds; binding result [5]: binds
4 | B4 |  | 24 | 
5 | B5 |  | 24 | 
6 | B6 | binds |  | 
7 | B7 | binds |  | 
